Target: Cro-6His (Cro-like repressor of phage phi10403S) (Listeria monocytogenes 10403S prophage …, UniProt A0A0H3GJS2 1-67)
Assay: EMSA

B1: Cro operator probe, native (dsDNA)
DNA 1: TTATAGAGAAACAAAACGTTTCTTTTGG
DNA 2: CCAAAAGAAACGTTTTGTTTCTCTATAA
- Kd: 321 nM
